Measured values from publication PMC3444665 (Virology, 2012).

Legend:
Experiment in all cases: pull-down
GST-Agno (F39A) = target: T1, GST-Agno (F39A) (JC virus (JCV Mad-1), UniProt P03086 1-71, F39A)
T1 sequence: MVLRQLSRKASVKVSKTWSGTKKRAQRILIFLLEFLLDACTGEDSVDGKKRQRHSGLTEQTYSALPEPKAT

GST-Agno (F31A) = target: T2, GST-Agno (F31A) (JC virus (JCV Mad-1), UniProt P03086 1-71, F31A)
T2 sequence: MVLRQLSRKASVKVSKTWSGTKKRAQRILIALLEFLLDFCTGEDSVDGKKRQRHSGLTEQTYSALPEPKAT

GST-Agno (F35A) = target: T3, GST-Agno (F35A) (JC virus (JCV Mad-1), UniProt P03086 1-71, F35A)
T3 sequence: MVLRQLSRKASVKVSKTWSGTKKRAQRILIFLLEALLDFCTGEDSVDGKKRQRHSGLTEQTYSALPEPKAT

Measured: fold decrease of the interaction against WT agnoprotein

B1: JCV large T-antigen in whole-cell extracts of HJC-15b cells (natural protein)
chain: MDKVLNREESMELMDLLGLDRSAWGNIPVMRKAYLKKCKELHPDKGGDEDKMKRMNFLYKKMEQGVKVAHQPDFGTWNSSEVPTYGTDEWESWWNTFNEKWDEDLFCHEEMFASDDENTGSQHSTPPKKKKKVEDPKDFPVDLHAFLSQAVFSNRTVASFAVYTTKEKAQILYKKLMEKYSVTFISRHGFGGHNILFFLTPHRHRVSAINNYCQKLCTFSFLICKGVNKEYLFYSALCRQPYAVVEESIQGGLKEHDFNPEEPEETKQVSWKLVTQYALETKCEDVFLLMGMYLDFQENPQQCKKCEKKDQPNHFNHHEKHYYNAQIFADSKNQKSICQQAVDTVAAKQRVDSIHMTREEMLVERFNFLLDKMDLIFGAHGNAVLEQYMAGVAWIHCLLPQMDTVIYDFLKCIVLNIPKKRYWLFKGPIDSGKTTLAAALLDLCGGKSLNVNMPLERLNFELGVGIDQFMVVFEDVKGTGAESRDLPSGHGISNLDCLRDYLDGSVKVNLERKHQNKRTQVFPPGIVTMNEYSVPRTLQARFVRQIDFRPKAYLRKSLSCSEYLLEKRILQSGMTLLLLLIWFRPVADFAAAIHERIVQWKERLDLEISMYTFSTMKANVGMGRPILDFPREEDSEAEDSGHGSSTESQSQCFSQVSEASGADTQENCTFHICKGFQCFKKPKTPPPK
> 3 fold: all assays above
